# Results taken from the nanobody polyreactivity screen of Harvey et al. (2022).
# Assay: yeast display, Sf9 membrane polyspecificity reagent, FACS + sequencing; frameworks hold sequencing errors
# How it was run: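 In a synthetic yeast display library (Saccharomyces cerevisiae BJ5465), nanobody expression was induced with galactose for 36–48 hours. FACS gates were set low and high (top ~1%) using anti-HA fluorescence for expression and streptavidin fluorescence for binding of the Sf9 membrane reagent. Each polyreactivity label is drawn from the gate of origin.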
row,Sequence,polyreactivity (PSR sort gate)
1,QVQLVESGGGLVQAGGSLRLSCAASGSTFSLYAMGWYRQAPGIERELVAAIRSSGSTKYADSVKGRFTISRDNAKNTVYLQINSLKPEETAVYYCAAVSVTRADGRSGYEYWGQGTQVTVSS,low polyreactivity
2,QVQLVESGGGLVQAGGSLRLSCAASGSTFIGYAMGWYRQAPGKERELVAAISRRGSRTYYADSVKGRFTISRDNAKNTVYLQINSLKPEDTAVYYCNRDYREYGYAYSGRYYWGQGTQVTVSS,high polyreactivity
3,QVQLVESGGGLVQAGGSLRLSCAASGSTFYKYAMGWYRQAPGKERELVASISRSGGSTSYADSVKGRFTITRDNAKNTVYLQMNSLKPEDTAVYYCAATWRQHPGSMGYWGQGTQVTVSS,high polyreactivity
4,QVQLVETGGGLVQAGGSLRLSCAASGSIFITYLMGWNRQAPGKERELVDGISRSGGSTYYADSVKGRFTISRDNAMNTVYLQMNSLKPEDTAVYYCAAFFLRRPGSSGLRLLGQGTQVTVSS,high polyreactivity
5,QDQLVESGGGLVQAGGSLRLSCAASGLTLYKNGLGWYRQAHGKEMELVAVISRSGGRTYYADSVKGRFTISRDNAKYTVYLQMNSLKPEDTAVYYCAARQYGPSYTYYYWGQGTQVTVSS,high polyreactivity
6,QVQLVESGGGLVQAGGSLRLSCAASGRTSYWYAMGWYRQAPGKERELVAVISSGGSTYYADSVKGRFTISRDNAKNTVYLQMNSLKPEDTAVYYCNAVVGRWFPYNLSDYWGQGTQVTVSS,low polyreactivity
7,QVQLVESGGGLVQAGGSLRLSCAASGFTFPDYAMGWYRQAPAKERELVAAISSDGSTYYADSVNGRFTISRDNAHNTVYLQMNSLKPEDTAVYYCAAYVVWLYGYDYWGQGTQVTVSS,low polyreactivity
8,QVQLVESAGGLVQAGGRLSLSCAASGRTYKKYAMGWYRPEPGKERELVAAITGSGGSTYYADSVKGRFTISRDNAKNTVYLQMNSLKPEDTAVYYCAAYAYGVWDSQDGGNYWGLGTQVTVSS,low polyreactivity
9,QVQLVESGGGLVQAGGSLRLSCAASGYIFDRYAMGWYRQAPGKERELVAAISGRGGSTYYADSVKGRFTISRDNAKNTVYLQMNSLKPEETAVYYCARDVYVRNGQRARYDSWGQGTQVTVSS,high polyreactivity
10,PVQLVESGGGLVQAGGSLRLSCAASGIIFSDYAMGWYRQGPGKERELVAAITGGVSKYYADSVKGRFTISRDNAKNTVYLQMNSLKPEDTAVYYCNTDAWLETPVSGYSWGQGTQVTVSS,low polyreactivity
11,QVQLVESGGGLVQAGGSLRLSCAASGSTFSYNDMGWYRQAPGKERELVAAITDSDGNTDYADSVKGRFTISRDKAKNTVYLQMNSLKPEDTAVYYCAAYYYGSVAQDREYWGQGTQVTVSS,high polyreactivity
12,QVHLVESWGGLVQAGGSLRLSCAASGSTFSDYAMGWYRQAPGKERELVAGITGGGGTYYADSVKGRFTISRDNAKNTVSLHMNSLTPEDTARYYCAAGRRHGFGYWGQGTQVTVSS,low polyreactivity
13,QVQLVESGGGLVQAGGSLRLSCAASGFILYYYAMGWYRQAPGIERELVAAISWSGDSTYYADSVKGRFTISRDNAKNTVYLQMNSLKPEDTAVYYCAATGQLTHRYYWGQGTQVTVSS,low polyreactivity
14,QVQLVESGGGLVQAGGSLRFSCAASGRPFPYYVMGWYRQAPGKERELVAAINSGGRTNYADSVKGRFTISRDNAKNTVYLQMNSLKPEDTAVYYCTKRGHPARLGYYYWGQGTQVNVSS,low polyreactivity
15,QVQLVESGGGLVQAGGSLRLSCAASGIIFLWYAMGWYRQAPWKERELVAAISRTGSSTYYADSVKGRFTISRDNAKNTVYLQMNSLKPEDTAVYYCAAAYYSKRSWRFDYWGQGTQVTVSS,high polyreactivity
16,QVQLVESGGGLVQAGGSLRFSCAASGIIFQRNDMGLYRQAPGKERELVANIRDGGITYADSVKGRFTLSRDNAKNTFYLQMNSLKPEDTAVYYCAADYHTPSSFAPIELYDYWGQGTQVTVSS,low polyreactivity
17,QVHLVESGGGLVQAGGSLRLICAASGRIFTKYAMGCYRQAPGKEREVVAAISYRGGSTYYADSVKGRFTISRDNAKNTVYLQMNILKPEDTAVYYCAAYATSTRYCYWGQGTQVTVSS,high polyreactivity
18,QVQLVESGGGLVQAGGTLRLSCAASGYTLTINVMGWYRPAPGKERELVAAITSSGASTNYADSVKGRFTISRDNAKNTVYLQMNSLKPEDTAVYYCNVGNEHQSDFVVPFDYNHWGQGTQVTVSS,low polyreactivity
19,QVQLVESGGGLVQAGGSLRLSCAACGSIIYRNAMGWYRPAPGKERELVAAIRTSSGSTYYADSVKGRFTISRDNAKNTVYLQMNSLKPEDTAVYYCAAPRLYGYYSWGQGTQVTVSS,low polyreactivity
20,QVQLVESGGGLVQAGGSLRLSCAASGITLFHYVKGWYRQAPGKERELVADITWRGGNTFYADSVKGRFTISRDNAKNTVYLQMNSLKPEDTAVYYCAVRQAYRTRDYDYWGQGTQVTVSS,high polyreactivity
21,QVQLVESGGGLVQAGGSLRLSCAASGFTYFYYAMGSYRQAPGKERELVASISWSGGSTYYADSVKGRFTISRDNAKNTVYLQMNSLKPEDTAVYYCAADVPFGGDYWGQGTQVTVSS,low polyreactivity
22,QVQLVESGRGLVQAGGSLRLSCAASGIIFELYAMGWYRQAPGKEREFVAAINFSDGSTDYADSVKGRFTISRDNAKKTVYLKMNSLKPEDTAVYYCNADSIAYGSIIHGYWGQGTQVTVSS,low polyreactivity

row,Sequence,polyreactivity (PSR sort gate)
1,QVQRVESGGGLVQAGGRLRLSCAASASTLYSYAMGWNRQAPGKEREFVATISQIGVRTYYADSVKGRFTISRDNAKNTVYLQMNSLKPEDTAVYYCAAGYRFTTYLVYNYWGQGTQVTVSS,high polyreactivity
2,QVQLVESGGGLVQAGGSLRLSCAASGRIFVRYTMGWYRQAPGKERELVARITSGGSTNYADSVKGRFTISRDNAKNTVYLQMNSLKPEDTAVYYCAKSYGPRFGYWGQGTQVTVSS,low polyreactivity
3,QVQLVESGGGLVQAGGSLRLSCAASGFIFKGNAMGWYRQAPGKERELVAAISYSGGSTYYADSVKGRFTISRDNAKNTVYLQMNSLKPEDTAVYYCAALRWYHYGYWGQGTQVNVSS,high polyreactivity
4,QVQLVESGGGLVQAGGSLRLSCAASGSIFDPYTMGWYRHEPGKESELVAAINWSGGSTYYADSVKGRFTISRENAKYTVYLQMNSLKPEDTAVYYCNADLTSYYEEDERNDDDYWGQGTQVTVSS,low polyreactivity
5,QVQLGESGGGLVQAGGSLRLSCAASGSILRSYAMGWYRQAPGKERELVAVINGSGDRTYYADSVKGRFTISRDTAKNTVYLQMNSLKPEDTAVYYCNVVRRSPGDYSYYYWGKGTQVTVSS,low polyreactivity
6,QVQLVESGGGLVQAGASLRLSCAASGFILYRYAMGWYRQAPGKERELVAAISRRGGSTYYADSVKGRFTISRDNAKNTVYLQMNSLKPEDTAVYYCAADARYTRYDYWGQGTQVTVSS,high polyreactivity
7,QVQLVESGGGLVQAGGSLRLISAASGLIFKWYGMVWYRQAPGKEREFVAAITSSGTSTYYADSVKGRFTISRDNAKNTVDLHMNSLKPEDTAVYYCNARTKHRYEYDYWGQGTQVTVSS,high polyreactivity
8,QVHLVESGGGLVQAGGSLRLSCAASGLTFSSYSMGWYRQAPAKERELVATITSSGGDNTNYADSVKGRFTISRDNAKNTVYLQMNSLKPEDTAVYYFNKEGQQSYRWRMDYWGQGTQVTVSS,low polyreactivity
9,QVQLVESGGGLVQAGGRLRLTCAASGSTFFTNAMGWYRQAPGKERELVAAITINDGSTFYADSVKGRFTISRDNAKKTVYLQMNSLKPEDTAVYYCNADGVDLYDFWGQGTQVTVSS,low polyreactivity
10,QVQLVESGGGLVQAGGSLRLSCAASGFIFGWNAMGWSRQAPGKEREFVAAISWSGGSTYYADSVKGRFTISRDNAKNTVYLQMNSLKPEDTAVYYCAREYHGDSRRYDYWGQGTQVTVSS,high polyreactivity
11,QVQLVESGGGLVKAGGSLRLSSAATGFIFAYYDMGWYRQAPGKERELVAAISSRGGTYYADSVKGRFTISRDNATITVYLKMNCLKPEDTAVYDCAAASYTWVSRGYEYWGQGTQVTVSS,high polyreactivity
12,QVQLVESGGGLVQAGGSLRLSCAASGRIFTTYAMGWYRQAPGKERELVAAITSGGGTYYADSVKGRFTISRDNAKNTVYLQMNSLKPEDTAVYYCNADYSADYYWYYYWGQGTQVTVSS,low polyreactivity
13,QVQLVESGGGLVQAGGSLRLSCASSGFTINWNDMGWYRQAPGKERELVAAISGGASTYYADSVKGRFTISRDNAKNTVYLQMNSLKPEDTAVYYCAADLDEWGYLFDYWGQGTQVTVSS,low polyreactivity
14,QVHLVDSGGGIVQAGGSLRLSCAATGRISGVYAMVWYRQAPGKERELVAAISWSGGRTYYADSVKGRFTISRDNAKNTVYLQMNSLKPEDTAVYYCNADTGFRSYRRDYWGQGTQVTVSS,low polyreactivity
15,QVQLVESGGGLVQAGGSLRLSCAASGRIFYYYAMGWYRQAPGKERELVATITTSGKTYYADSVKGRFTISRDNAKNTVYLQMNSLKPEDTAVYYCNAGWDLVYGYYPRRKNFDYWGQGTKVTVSS,high polyreactivity
16,QVQLVESWGGLVQAGGSLRLSCAASGGTFSANAMGWYRQAPGKERELVAAISTSGGSTHYADSVKGRFTISRDSAKNTVYLQMNSLNPEDTAVYYCAARLYSYRRQYGYWGHGTQVTVSS,high polyreactivity
17,QVQLVESGGGLVQAGGSLRLSCAAYGSTFKSYAMGWYSQAPGKDRELVAAITHRGSTYYADSVKGRFTISRDNAKNTVYLQMNSLKPEDTAVYYCNVRRIGNGRRVDYWGQGTQVTVSS,high polyreactivity
18,QVQLVESGGGLVQAGFSLRLSCAASGSIFDYYTMGCYRQAPGKERELVATIRSGDSTNYADSVKGRFTISRDNAKNTVYLQMNSLKPEDTAVYYFAADDGAYPTLYDYWGQGTQVTVSS,low polyreactivity
19,QVQLVESGGGLVQAGGSLRLSCAASGNTFSPYVMGWYRQAPGKERELVAAISKGGGSTYYADSVKGRFTISRDNAKNTVYLQMNSLKPEDTAVYYCAASAGPRASYYYWGQGTQVTVSS,high polyreactivity
20,QVQLVDSGGGLVQAGGSLRLRCAASGRIFWYYAMGWYRQAPGKERELVASITRGNNTYYADSVKGRFTISRDNAKNTVYLQMNSLKPEVTAVFYCAKRYIYSYYWGQGTQVTVSS,high polyreactivity
21,QVQLVESGGGLVQAGGSLRLSCAASGSIFYYNAMGWYRPAPGKERELVADISTSGSTYYADSVKGRFTISRDNAKNTVYLQMNSLKPEDTAVYYCNADYLPQEGEFSYPYDYWGQGTQVTVSS,low polyreactivity
